Test results as given in paper PMC11094138 (2024).

Target: WDR5^22–334 (human, UniProt P61964 22-334)
Test: ITC

Kd | Binder
1.8 µM | GSARAEVHLRK [MLL1 WIN motif MLL1^3762–3772]
2 µM | GSRRAEVHLRK [MLL1^3762–3772_A3764R]
